Measured values reported in patent publication US20090263900.

Key:
ZFN 2189-11 (synthetic) = assay: cell_activity; settings: pair with r2182-8; K562 cells, 50 bp HA linear donor 6.9 ug; targeted integration 2-9.4% over donors, 0% without ZFN
ZFN r2182-8 (synthetic) = assay: cell_activity; settings: pair with 2189-11; K562 cells, 50 bp HA linear donor 6.9 ug; targeted integration 2-9.4% over donors, 0% without ZFN

| Sequence | activity (ZFN 2189-11 (synthetic)) [% TI] | activity (ZFN r2182-8 (synthetic)) [% TI] |
| --- | --- | --- |
| ACTAGGGACAGGATTG (double strand) [AAVS1 2189-11 target half-site] | 9.4 | – |
| CCCCACTGTGGGGTGG (double strand) [AAVS1 r2182-8 target half-site] | – | 9.4 |
